B1: CPEB3 Ribozyme (parent)
chain: UAACAGGGGGCCACAGCAGAAGCGUUCACGUCGCAGCCCCUGUCAGAUUCUGGUGAAUCUGCGAAUUCUGCUGUAUAUCUC

Variants of B1 are the subject of this series. Nature of the series: self-cleavage, relative activity (ratio to wild type); higher = more cleavage; in vitro, sequencing. A digest of the protocol:
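Relative activity was defined as the cleaved/total read fraction for a variant divided by the same fraction for the unmutated ribozyme. CPEB3 self-cleaving ribozyme libraries were made by rounds of error-prone PCR, barcoded, and transcribed in vitro with T7 RNA polymerase for 5 hours at 37°C, and cleavage ran through transcription plus a 15 min DNase I step before EDTA. Illumina sequencing of template-switched reverse transcripts gave the reads, and DNA sequencing mapped the barcodes. Averages come from three batches, using variants with at least 5 reads.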
In the case of A3U G9A, the self-cleavage came to 0.58.

On to A3U G9C, for which the self-cleavage came out at 0.25.

In the case of A3G U76C, the self-cleavage was determined as 1.15.

For the variant A3G U76A, the self-cleavage was determined as 1.23.

On to A3U U58C, for which the self-cleavage worked out at 0.54.

In the case of A3U U58A, the self-cleavage was 0.39.

As to A3U U25C, the self-cleavage was 0.34.

Regarding A3U U25A, the self-cleavage was determined as 0.29.

As for A3G A18G, the self-cleavage was 0.73.

For A3G A18C, the self-cleavage was 0.46.

Consider A3G A18U, for which the self-cleavage was determined as 0.44.

As for A3C G33C, the self-cleavage came out at 0.35.

As to A3U C71U, the self-cleavage worked out at 0.83.

In the case of A3U C29U, the self-cleavage is 0.71.

In the case of A3C U26A, the self-cleavage turned out to be 1.2.

Turning to A3C U26C, the self-cleavage amounted to 0.6.

As for A3G G16C, the self-cleavage amounted to 0.47.

Regarding A3G G16A, the self-cleavage was found to be 0.38.

A3G G16U: the self-cleavage came to 0.62.

For the variant A3U U31A, the self-cleavage was 0.55.

Take A3U U31G: the self-cleavage is 1.01.

With A3U U31C, the self-cleavage came to 1.01.

As to A3G C27A, the self-cleavage amounted to 0.45.

With A3G C27U, the self-cleavage was 0.53.

On to A3G C27G, for which the self-cleavage turned out to be 0.43.

On to A3C U49A, for which the self-cleavage was 1.1.

Take A3C U49C: the self-cleavage stood at 0.86.

For the variant A3U G10U, the self-cleavage stood at 0.19.

As for A3U G10A, the self-cleavage came to 0.1.

For the variant A3U U26A, the self-cleavage was found to be 1.03.

As for A3U U26G, the self-cleavage was 0.23.

A3U U26C: the self-cleavage is 0.64.

In the case of A3G G6U, the self-cleavage is 0.57.

With A3G G6A, the self-cleavage is 0.59.

Regarding A3G G6C, the self-cleavage came to 0.77.

Turning to A3U A57U, the self-cleavage was 0.85.

Take A3U A57G: the self-cleavage came to 1.04.

As to A3G C38G, the self-cleavage turned out to be 1.02.

Take A3G C38U: the self-cleavage was found to be 0.83.

A3G C62U: the self-cleavage was 0.39.

As for A3G C62A, the self-cleavage amounted to 0.59.

Turning to A3G C62G, the self-cleavage turned out to be 0.32.

A3C U51A: the self-cleavage worked out at 1.19.

In the case of A3C U51C, the self-cleavage was determined as 1.12.

Regarding A3C U69A, the self-cleavage was found to be 1.08.

Consider A3U A13U, for which the self-cleavage is 1.16.

For the variant A3U A13G, the self-cleavage was 0.89.

As for A3U A13C, the self-cleavage was 0.96.

With A3U G46A, the self-cleavage worked out at 0.54.

For A3G C68U, the self-cleavage is 0.79.

Regarding A3G C68A, the self-cleavage stood at 0.46.

Turning to A3G C68G, the self-cleavage was found to be 0.47.

On to A3G U41G, for which the self-cleavage amounted to 0.17.

As for A3G U41C, the self-cleavage came out at 0.98.

On to A3G U41A, for which the self-cleavage came to 0.3.

In the case of A3U A65G, the self-cleavage turned out to be 0.54.

For A3U A65U, the self-cleavage amounted to 0.14.

Consider A3G C37A, for which the self-cleavage was determined as 0.36.

Turning to A3G C37U, the self-cleavage came to 0.85.

In the case of A3G G8A, the self-cleavage came to 0.37.

In the case of A3G G8U, the self-cleavage worked out at 0.34.

Turning to A3G A28G, the self-cleavage was 0.72.

Regarding A3G A28U, the self-cleavage turned out to be 0.89.

As for A3G A28C, the self-cleavage was 0.73.

On to A3U U66C, for which the self-cleavage is 0.55.

Take A3U C81G: the self-cleavage turned out to be 1.21.

A3G U74G: the self-cleavage was 1.24.

For A3G U74C, the self-cleavage is 1.16.

Turning to A3G U74A, the self-cleavage turned out to be 1.22.

Regarding A3G U78A, the self-cleavage was found to be 1.17.

For the variant A3G U78C, the self-cleavage was 0.99.

Turning to A3G A13C, the self-cleavage was 1.02.

A3G A13G: the self-cleavage was determined as 0.95.

Take A3G A13U: the self-cleavage was determined as 1.02.

For A3G U58A, the self-cleavage is 0.43.

In the case of A3G U58C, the self-cleavage was determined as 0.54.

Take A3G U58G: the self-cleavage was 0.39.

Regarding A3U C32G, the self-cleavage worked out at 0.47.

Regarding A3U G70U, the self-cleavage came to 0.19.

Regarding A3U G70A, the self-cleavage was 0.63.

Regarding A3U U51G, the self-cleavage is 1.08.

As for A3U U51C, the self-cleavage came out at 1.15.

Take A3U U51A: the self-cleavage turned out to be 1.02.

As to A3C U74A, the self-cleavage worked out at 1.14.

As to A3C U41C, the self-cleavage is 1.02.

With A3C U41A, the self-cleavage amounted to 0.24.

Turning to A3C U41G, the self-cleavage was 0.56.

For A3G G36A, the self-cleavage is 0.2.

Turning to A3G G36U, the self-cleavage was determined as 0.26.

With A3G C23U, the self-cleavage is 0.38.

On to A3G C23G, for which the self-cleavage was 0.33.

Consider A3G C23A, for which the self-cleavage was 0.22.

As to A3G C4A, the self-cleavage worked out at 1.17.

As to A3G C4U, the self-cleavage turned out to be 1.11.

For A3G C4G, the self-cleavage was found to be 1.15.

In the case of A3U A21U, the self-cleavage turned out to be 0.56.

With A3U A21G, the self-cleavage was 0.79.

As for A3G C44A, the self-cleavage is 0.42.

Consider A3U U60A, for which the self-cleavage stood at 0.19.

Consider A3U U60C, for which the self-cleavage stood at 0.59.

As to A3U G22A, the self-cleavage is 0.45.

Regarding A3U G22U, the self-cleavage turned out to be 0.32.

With A3C U78C, the self-cleavage turned out to be 1.12.

In the case of A3U G33A, the self-cleavage was found to be 0.16.

As to A3U G33U, the self-cleavage amounted to 0.42.

Turning to A3G U43A, the self-cleavage came to 0.99.

In the case of A3G U43C, the self-cleavage turned out to be 0.49.

Regarding A3G U69A, the self-cleavage is 0.69.

Take A3G U69G: the self-cleavage worked out at 0.76.

Take A3G U69C: the self-cleavage came to 0.6.

On to A3U A75G, for which the self-cleavage amounted to 1.06.

As for A3U G19U, the self-cleavage was determined as 0.4.

As to A3C U31G, the self-cleavage was 0.93.

With A3G U60G, the self-cleavage amounted to 0.45.

A3G U60C: the self-cleavage worked out at 0.52.

On to A3G U60A, for which the self-cleavage worked out at 0.47.

A3U A18G: the self-cleavage turned out to be 0.8.

Regarding A3U A18U, the self-cleavage worked out at 0.56.

Turning to A3G C79U, the self-cleavage was determined as 1.

Consider A3G C79A, for which the self-cleavage is 1.05.

In the case of A3G A77G, the self-cleavage was found to be 1.03.

Regarding A3G A77C, the self-cleavage amounted to 1.03.

Take A3G A77U: the self-cleavage amounted to 0.99.

On to A3G C81G, for which the self-cleavage was 1.17.

Regarding A3G A65U, the self-cleavage is 0.25.

On to A3G A65G, for which the self-cleavage was 0.55.

For A3G U54G, the self-cleavage was determined as 0.82.

For the variant A3G U54A, the self-cleavage stood at 0.98.

Regarding A3G U54C, the self-cleavage turned out to be 0.98.

Consider A3G G30A, for which the self-cleavage came to 0.44.

Turning to A3C U58G, the self-cleavage stood at 0.25.

For A3C U58C, the self-cleavage was determined as 0.4.

On to A3C U58A, for which the self-cleavage worked out at 0.5.

Regarding A3G C17G, the self-cleavage was determined as 0.55.

Regarding A3G C17U, the self-cleavage stood at 0.85.

For A3G C17A, the self-cleavage stood at 0.33.

With A3G U26C, the self-cleavage was determined as 0.65.

On to A3G U26A, for which the self-cleavage was determined as 0.9.

For A3G U66C, the self-cleavage amounted to 0.4.

As to A3G U66A, the self-cleavage turned out to be 0.64.

Turning to A3G U66G, the self-cleavage amounted to 0.62.

In the case of A3U C12A, the self-cleavage worked out at 1.14.

Regarding A3U G16A, the self-cleavage came out at 0.43.

As for A3G C50G, the self-cleavage was found to be 0.8.

In the case of A3G C50U, the self-cleavage turned out to be 0.94.

With A3G C50A, the self-cleavage was determined as 0.82.

As for A3C U76A, the self-cleavage turned out to be 1.

On to A3U G8A, for which the self-cleavage came to 0.2.

With A3G G24A, the self-cleavage worked out at 0.6.

With A3G C39A, the self-cleavage came out at 0.05.

As for A3G C39U, the self-cleavage is 0.64.

Regarding A3G C39G, the self-cleavage was 0.34.

Turning to A3U U48A, the self-cleavage worked out at 0.56.

As to A3U U48C, the self-cleavage worked out at 0.63.

As to A3U A77U, the self-cleavage is 1.25.

For the variant A3U A77G, the self-cleavage amounted to 1.04.

Take A3C G61C: the self-cleavage was 0.32.

As for A3U C40A, the self-cleavage was 0.54.

With A3G C12A, the self-cleavage is 1.16.

Regarding A3G C12U, the self-cleavage came out at 1.22.

Take A3U C59A: the self-cleavage amounted to 0.51.

On to A3U C59U, for which the self-cleavage was 0.66.

Take A3U C38U: the self-cleavage amounted to 0.97.

As for A3U C38G, the self-cleavage amounted to 0.31.

For A3U C79U, the self-cleavage is 1.21.

Consider A3G U72G, for which the self-cleavage is 1.07.

As for A3G U72C, the self-cleavage was found to be 1.09.

For the origin of these results see the RNAGym collection of RNA variant scans (doi:10.1093/nar/gkz1192).
